Data from patent US20250326826A1 (CENTRO DE INGENIER A GEN TICA Y BIOTECNOLOG A, published 2025).
Like-named read-outs stand apart in the source and are kept apart here.

Key:
[1] = target: bFGF (soluble stimulus added to cell cultures); assay: cell-based or functional assay
[2] = target: VEGF (soluble stimulus added to cell cultures); assay: cell-based or functional assay
Recombinant human bFGF [3] = target: T1, Recombinant human bFGF (human, UniProt P09038 143-288, limits assumed); assay: competition ELISA, coated bFGF, competitor Fc-FGFR1
T1 construct: Bought (Sigma); also called hFGF-2; human basic fibroblast growth factor
T1 sequence (P09038 143-288 limits assumed): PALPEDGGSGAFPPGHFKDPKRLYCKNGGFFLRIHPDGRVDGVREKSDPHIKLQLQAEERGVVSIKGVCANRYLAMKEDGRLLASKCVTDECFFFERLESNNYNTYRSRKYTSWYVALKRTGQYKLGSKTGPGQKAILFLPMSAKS
Procedure: (§1) The ability of VHHs to hinder receptors for binding to their ligand was assessed by ELISA, for which 96-well plates (NUNC, USA) were coated with GST-hVEGF or bFGF and blocked as described in the previous section. Serial 1:2 dilutions of the purified VHHs, from […] to […], were added and the plates and incubated for 1 h at 37° C. In this step, some wells were left where only PBS-milk was added. […] After 45 min incubation at 37° C., plates were washed with PBS-0.05% Tween. To detect receptor binding, HRP-conjugated anti-human IgG antibody was added, diluted 1:5000 in PBS-0.5% milk. After incubation for 1 h at 37° C., the plates were washed with PBS-Tween, and TMB was added. The reaction was stopped after 10 min. Wells incubated with the receptors without the addition of the antibody fragments were taken as reference for maximum binding in the absence of competitor. In this assay, in the case of inhibition of the VEGF/VEGFR axis, the CIGB166a antibody fragment was used as a positive control, and an anti-FGF polyclonal antibody was used for the FGF/FGFR axis. The percentage of inhibition of receptor binding to its ligand was calculated as follows: […]

Recombinant human bFGF [4] = target: T1, Recombinant human bFGF; assay: ELISA, coated bFGF
Procedure: (§2) The plates were incubated for 1 hour at 37° C. and after several washes, the monoclonal antibody 9E10, specific for c-myc, was added. After one hour of incubation at 25° C. the plates were washed thoroughly. The binding of the fragment to the antigen in the solid phase was detected by the peroxidase activity using 100 μL/well of TMB. The reaction was stopped with 50 μL/well of stop solution, and absorbance values at 450 nm were determined in a microtiter plate reader.
SEQ ID NO: 18 and SEQ ID NO: 19, and the bivalent Nb-VV6 and Nb-FF2, with sequences identified as SEQ ID NO: 20 and SEQ ID NO: 21, were expressed and purified as described in the Example 1. In all cases, the purity and identity of the proteins were verified by SDS-PAGE 12% and anti-polyhistidine Western Blot. […] The experimental mass of the polypeptides and the arrangement of the disulfide bridges were checked by ESI/MS-MS. […] The biological activity of the polypeptides was evaluated by ELISA for recognition of the VEGF and bFGF antigens, and by their ability to displace VEGF and bFGF binding to their respective VEGFR2 and FGFR1 receptors. […] In agreement with the increase in recognition, a decrease in the KD of the fragments was observed, calculated according to the methodology described by Beatty et al (Beatty J D, Beatty B G, Vlahos W G. J Immunol Methods. 1987 Jun. 26;100(1-2):173-9).

Recombinant human bFGF [5] = target: T1, Recombinant human bFGF; assay: ELISA, coated human bFGF
Procedure: as §2, with “The 96-well plates were coated with 100 μL/well of a solution of GST-hVEGF121, GST-mVEGF120, or GST at a concentration of 20 μg/mL, or with a solution of VEGFKDR- at a concentration of 10 μg/mL, or hFGF-2 or mFGF-2 at a concentration of 5 μg/mL in 1×PBS for 16 hours at 4° C. After the plates were blocked with PBS-5% skim milk for one hour, 1:2 serial dilutions of the purified VHHs were added, starting at 2 μg/mL in PBS-0.5% skim milk. The plates” for “The plates”
SEQ ID NO: 18 and SEQ ID NO: 19, and the bivalent Nb-VV6 and Nb-FF2, with sequences identified as SEQ ID NO: 20 and SEQ ID NO: 21, were expressed and purified as described in the Example 1. In all cases, the purity and identity of the proteins were verified by SDS-PAGE 12% and anti-polyhistidine Western Blot. […] The experimental mass of the polypeptides and the arrangement of the disulfide bridges were checked by ESI/MS-MS. The experimental and theoretical mass, for each polypeptide coincided, with errors less than 0.0015% in all cases, and the formation of intramolecular bridges between C22-C101 and C168-C247 was verified. […] The biological activity of the polypeptides was evaluated by ELISA for recognition of the VEGF and bFGF antigens, and by their ability to displace VEGF and bFGF binding to their respective VEGFR2 and FGFR1 receptors. […] Similarly, it was shown that the ability to displace the binding of antigens by their receptors was not affected.

[6] = target: Human VEGF (dendritic cell assay) (human, UniProt P15692-4 27-191, limits assumed); assay: cell-based or functional assay
GST-hVEGF121 [7] = target: T2, GST-hVEGF121 (human, UniProt P15692-9 27-147); assay: ELISA, coated GST-hVEGF
T2 construct: plate coating of the VEGF ELISAs; also called human VEGF; not shown: glutathione S-transferase (GST) fusion partner
T2 sequence (looked up): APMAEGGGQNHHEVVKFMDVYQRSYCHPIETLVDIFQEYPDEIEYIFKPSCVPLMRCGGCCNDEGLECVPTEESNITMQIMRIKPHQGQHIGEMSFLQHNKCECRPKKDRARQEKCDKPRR
Procedure: as §2, with “The 96-well plates were coated with 100 μL/well of a solution of GST-hVEGF121, GST-mVEGF120, or GST at a concentration of 20 μg/mL, or with a solution of VEGFKDR- at a concentration of 10 μg/mL, or hFGF-2 or mFGF-2 at a concentration of 5 μg/mL in 1×PBS for 16 hours at 4° C. After the plates were blocked with PBS-5% skim milk for one hour, 1:2 serial dilutions of the purified VHHs were added, starting at 2 μg/mL in PBS-0.5% skim milk. The plates” for “The plates”
SEQ ID NO: 18 and SEQ ID NO: 19, and the bivalent Nb-VV6 and Nb-FF2, with sequences identified as SEQ ID NO: 20 and SEQ ID NO: 21, were expressed and purified as described in the Example 1. […] The biological activity of the polypeptides was evaluated by ELISA for recognition of the VEGF and bFGF antigens, and by their ability to displace VEGF and bFGF binding to their respective VEGFR2 and FGFR1 receptors. […]

GST-hVEGF121 [8] = target: T2, GST-hVEGF121; assay: ELISA, coated GST-hVEGF; remark: listed apart in the source
Procedure: as §2, with “The 96-well plates were coated with 100 μL/well of a solution of GST-hVEGF121, GST-mVEGF120, or GST at a concentration of 20 μg/mL, or with a solution of VEGFKDR- at a concentration of 10 μg/mL, or hFGF-2 or mFGF-2 at a concentration of 5 μg/mL in 1×PBS for 16 hours at 4° C. After the plates were blocked with PBS-5% skim milk for one hour, 1:2 serial dilutions of the purified VHHs were added, starting at 2 μg/mL in PBS-0.5% skim milk. The plates” for “The plates”

GST-hVEGF121 [9] = target: T2, GST-hVEGF121; assay: competition ELISA, coated GST-hVEGF, competitor Fc-VEGFR2
Procedure: as §1
The biological effect of VEGF is a consequence of its binding to two fundamental receptors (VEGFR1 and VEGFR2), so for a polypeptide that binds to VEGF to be effective in the therapeutic setting, it must block these interactions (Shibuya, Cell Structure and Function, 2001: 26: 25-35). The ability of Nb-V1 to compete with receptors 1 and 2 for binding to its ligand (VEGF) was assessed by solid phase ligand competition ELISA, as described above.

[10] = target: VEGF (soluble stimulus added to cell cultures); assay: cell-based or functional assay; remark: listed apart in the source
Recombinant human bFGF [11] = target: T1, Recombinant human bFGF; assay: ELISA, coated human bFGF; remark: listed apart in the source
GST-hVEGF121 [12] = target: T2, GST-hVEGF121; assay: ELISA, coated GST-hVEGF; remark: listed apart in the source
Recombinant human bFGF [13] = target: T1, Recombinant human bFGF; assay: competition ELISA, coated bFGF, competitor Fc-FGFR1; remark: listed apart in the source
GST-hVEGF121 [14] = target: T2, GST-hVEGF121; assay: competition ELISA, coated GST-hVEGF, competitor Fc-VEGFR2; remark: listed apart in the source

Sequence of VEGF (soluble stimulus added to cell cultures) (P15692 whole entry): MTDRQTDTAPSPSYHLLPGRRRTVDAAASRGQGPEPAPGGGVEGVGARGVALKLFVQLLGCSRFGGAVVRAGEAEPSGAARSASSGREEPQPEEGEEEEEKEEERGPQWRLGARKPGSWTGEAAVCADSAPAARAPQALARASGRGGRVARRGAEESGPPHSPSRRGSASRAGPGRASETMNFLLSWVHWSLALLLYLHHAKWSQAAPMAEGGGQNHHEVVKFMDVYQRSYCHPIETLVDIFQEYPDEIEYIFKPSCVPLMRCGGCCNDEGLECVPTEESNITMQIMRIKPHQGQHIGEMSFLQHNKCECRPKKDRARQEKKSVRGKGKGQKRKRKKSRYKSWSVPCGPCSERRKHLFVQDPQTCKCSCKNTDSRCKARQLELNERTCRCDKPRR

B1: Nb-FF2 (VHH)
chain: QVQLVESGGGLVQPGGSLRLSCAASGTEDGRLLTLGGSWFRQAPGQGLEAVAAIGAGDRGGATYYADSVKGRFTISRDNSKNTLYLQMNSLRAEDTAVYYCTALYERQPQLAATKVARKWGQGTLVTVSSAHHSEDPSSKAPKAPAQVQLVESGGGLVQPGGSLRLSCAASGTEDGRLLTLGGSWFRQAPGQGLEAVAAIGAGDRGGATYYADSVKGRFTISRDNSKNTLYLQMNSLRAEDTAVYYCTALYERQPQLAATKVARKWGQGTLVTVSSAAAGSEQKLISEEDLNSHHHHHH
notes: Bivalent monospecific tandem VHH for bFGF; with c-myc and histidine tag
In the case of B1, the “IC50, proliferation of HDMEC cells +bFGF (10 ng/ml)” value [1] is reported as 50 nM, the “IC50, proliferation of HDMEC cells +VEGF (5 ng/ml)” value [2] is reported as over 6000 nM and the IC50 (Recombinant human bFGF [3]) is reported as 53.5 nM. The “fold decrease of EC50 against Nb-F3” value (Recombinant human bFGF [4]) was 2 fold and the EC50 (Recombinant human bFGF [5]) was 5.86 nM.

B2: Nb-VV6 (VHH)
chain: QVQLVESGGGLVQPGGSLRLSCAASGNSAEDRLYNSYTWFRQAPGQGLEAVAAISSHFSAGLTYYADSVKGRFTISRDNSKNTLYLQMNSLRAEDTAVYYCEITSHASHNDAWSTPRTVWGQGTLVTVSSAHHSEDPSSKAPKAPAQVQLVESGGGLVQPGGSLRLSCAASGNSAQDRLYNSYTWFRQAPGQGLEAVAAISSHFSAGLTYYADSVKGRFTISRDNSKNTLYLQMNSLRAEDTAVYYCEITSHASHNDAWSTPRTVWGQGTLVTVSSAAAGSEQKLISEEDLNSHHHHHH
notes: Bivalent monospecific tandem VHH for VEGF, hinge spacer with cysteines replaced by alanines; with c-myc and histidine tag
B2 was tested, and the “IC50, proliferation of HDMEC cells +bFGF (10 ng/ml)” value [1] was over 6000 nM, the “IC50, proliferation of HDMEC cells +VEGF (5 ng/ml)” value [2] was 30 nM and the “CD86 (MFI) on dendritic cells +VEGF +LPS, VHH 1 µg/mL” value [6] was 4200 MFI. The “CD86 (MFI) on dendritic cells +VEGF +LPS, VHH 5 µg/mL” value [6] was 6520 MFI, the “CD86 (MFI) on dendritic cells +VEGF +LPS, VHH 10 µg/mL” value [6] was 18000 MFI and the “MHCII (MFI) on dendritic cells +VEGF +LPS, VHH 1 µg/mL” value [6] was 5110 MFI. The “MHCII (MFI) on dendritic cells +VEGF +LPS, VHH 5 µg/mL” value [6] was 11200 MFI, the “MHCII (MFI) on dendritic cells +VEGF +LPS, VHH 10 µg/mL” value [6] was 18700 MFI and the “fold decrease of EC50 against Nb-V1” value (GST-hVEGF121 [7]) was 2 fold. For the same binder, the EC50 (GST-hVEGF121 [8]) was 1.9 nM, the IC50 (GST-hVEGF121 [9]) was 5.6 nM and the “PD1 expression (%) in CD8+ cells treated with VEGF, VHH 1 µg/mL” value [10] was 52%. The “PD1 expression (%) in CD8+ cells treated with VEGF, VHH 5 µg/mL” value [10] was 41% and the “PD1 expression (%) in CD8+ cells treated with VEGF, VHH 10 µg/mL” value [10] was 36%.

B3: Nb-FV1\cmycH6 (bispecific antibody)
chain: QVQLVESGGGLVQPGGSLRLSCAASGTEDGRLLTLGGSWFRQAPGQGLEAVAAIGAGDRGGATYYADSVKGRFTISRDNSKNTLYLQMNSLRAEDTAVYYCTALYERQPQLAATKVARKWGQGTLVTVSSAHHSEDPSSKAPKAPAQVQLVESGGGLVQPGGSLRLSCAASGNSAEDRLYNSYTWFRQAPGQGLEAVAAISSHFSAGLTYYADSVKGRFTISRDNSKNTLYLQMNSLRAEDTAVYYCEITSHASHNDAWSTPRTVWGQGTLVTVSS
notes: Nb-FV1 without c-myc tracer peptide and histidine tag
B3 gave an EC50 (Recombinant human bFGF [11]) of 11.8 nM, an EC50 (GST-hVEGF121 [12]) of 4.56 nM and an IC50 (Recombinant human bFGF [13]) of 132 nM. The IC50 (GST-hVEGF121 [14]) was 28.6 nM.

B4: Nb-VF3\cmycH6 (bispecific antibody)
chain: QVQLVESGGGLVQPGGSLRLSCAASGNSAEDRLYNSYTWFRQAPGQGLEAVAAISSHFSAGLTYYADSVKGRFTISRDNSKNTLYLQMNSLRAEDTAVYYCEITSHASHNDAWSTPRTVWGQGTLVTVSSAHHSEDPSSKAPKAPAQVQLVESGGGLVQPGGSLRLSCAASGTEDGRLLTLGGSWFRQAPGQGLEAVAAIGAGDRGGATYYADSVKGRFTISRDNSKNTLYLQMNSLRAEDTAVYYCTALYERQPQLAATKVARKWGQGTLVTVSS
notes: Nb-VF3 without c-myc tracer peptide and histidine tag
B4 showed an EC50 (Recombinant human bFGF [11]) of 11.5 nM, an EC50 (GST-hVEGF121 [12]) of 4.84 nM and an IC50 (Recombinant human bFGF [13]) of 137 nM. It also gave an IC50 (GST-hVEGF121 [14]) of 28.4 nM.
